Experimental findings from US20180135012A1 are described below.

This series has as its target T1, A2 domain of von Willebrand Factor (vWF-A2, recombinant), P04275.
T1 chain: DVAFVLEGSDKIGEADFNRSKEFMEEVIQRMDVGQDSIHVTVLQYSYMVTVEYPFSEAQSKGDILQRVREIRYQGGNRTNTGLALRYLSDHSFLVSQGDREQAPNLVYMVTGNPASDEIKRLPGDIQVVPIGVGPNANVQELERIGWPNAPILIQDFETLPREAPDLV

B1: ADAMTS13 fused to the extracellular domain of GPA, expressed on K562 erythroleukemia cells (protein)
chain: AAGGILHLELLVAVGPDVFQAHQEDTERYVLTNLNIGAELLRDPSLGAQFRVHLVKMVILTEPEGAPNITANLTSSLLSVCGWSQTINPEDDTDPGHADLVLYITRFDLELPDGNRQVRGVTQLGGACSPTWSCLITEDTGFDLGVTIAHEIGHSFGLEHDGAPGSGCGPSGHVMASDGAAPRAGLAWSPCSRRQLLSLLSAGRARCVWDPPRPQPGSAGHPPDAQPGLYYSANEQCRVAFGPKAVACTFAREHLDMCQALSCHTDPLDQSSCSRLLVPLLDGTECGVEKWCSKGRCRSLVELTPIAAVHGRWSSWGPRSPCSRSCGGGVVTRRRQCNNPRPAFGGRACVGADLQAEMCNTQACEKTQLEFMSQQCARTDGQPLRSSPGGASFYHWGAAVPHSQGDALCRHMCRAIGESFIMKRGDSFLDGTRCMPSGPREDGTLSLCVSGSCRTFGCDGRMDSQQVWDRCQVCGGDNSTCSPRKGSFTAGRAREYVTFLTVTPNLTSVYIANHRPLFTHLAVRIGGRYVVAGKMSISPNTTYPSLLEDGRVEYRVALTEDRLPRLEEIRIWGPLQEDADIQVYRRYGEEYGNLTRPDITFTYFQPKPRQAWVWAAVRGPCSVSCGAGLRWVNYSCLDQARKELVETVQCQGSQQPPAWPEACVLEPCPPYWAVGDFGPCSASCGGGLRERPVRCVEAQGSLLKTLPPARCRAGAQQPAVALETCNPQPCPARWEVSEPSSCTSAGGAGLALENETCVPGADGLEAPVTEGPGSVDEKLPAPEPCVGMSCPPGWGHLDATSAGEKAPSPWGSIRTGAQAAHVWTPAAGSCSVSCGRGLMELRFLCMDSALRVPVQEELCGLASKPGSRREVCQAVPCPARWQYKLAACSVSCGRGVVRRILYCARAHGEDDGEEILLDTQCQGLPRPEPQEACSLEPCPPRWKVMSLGPCSASCGLGTARRSVACVQLDQGQDVEVDEAACAALVRPEASVPCLIADCTYRWHVGTWMECSVSCGDGIQRRRDTCLGPQAQAPVPADFCQHLPKPVTVRGCWAGPCVGQGTPSLVPHEEAAAPGRTTATPAGASLEWSQARGLLFSPAPQPRRLLPGPQENSVQSSACGRQHLEPTGTIDMRGPGQADCAVAIGRPLGEVVTLRVLESSLNCSAGDMLLLWGRLTWRKMCRKLLDMTFSSKTNTLVVRQRCGRPGGGVLLRYGSQLAPETFYRECDMQLFGPWGEIVSPSLSPATSNAGGCRLFINVAPHARIAIHALATNMGAGTEGANASYILIRDTHSLRTTAFHGQQVLYWESESSQAEMEFSEGFLKAQASLRGQYWTLQSWVPEMQDPQSWKGKEGTYPYDVPDYALSTTEVAMHTSTSSSVTKSYISSQTNDTHKRDTYAATPRAHEVSEISVRTVYPPEEETGERVQLAHHFSEPEITLIIFGVMAGVIGTILLISYGIRRLIKKSPSDVKPLPSPDTDVPLSSVEIENPETSDQ
In the case of B1, the “enzymatic cleavage of vWF subdomain A2 detected by Western blot” value is listed as “the cell-expressed ADAMTS13 (lane 4) appears more active than the recombinant ADAMTS13 (lane 2), despite the fact that there is 6× less cell-expressed ADAMTS13 (13ng) than recombinant ADAMTS13 (75 ng) in the assay”.

B2: recombinant ADAMTS13 (protein)
chain: AAGGILHLELLVAVGPDVFQAHQEDTERYVLTNLNIGAELLRDPSLGAQFRVHLVKMVILTEPEGAPNITANLTSSLLSVCGWSQTINPEDDTDPGHADLVLYITRFDLELPDGNRQVRGVTQLGGACSPTWSCLITEDTGFDLGVTIAHEIGHSFGLEHDGAPGSGCGPSGHVMASDGAAPRAGLAWSPCSRRQLLSLLSAGRARCVWDPPRPQPGSAGHPPDAQPGLYYSANEQCRVAFGPKAVACTFAREHLDMCQALSCHTDPLDQSSCSRLLVPLLDGTECGVEKWCSKGRCRSLVELTPIAAVHGRWSSWGPRSPCSRSCGGGVVTRRRQCNNPRPAFGGRACVGADLQAEMCNTQACEKTQLEFMSQQCARTDGQPLRSSPGGASFYHWGAAVPHSQGDALCRHMCRAIGESFIMKRGDSFLDGTRCMPSGPREDGTLSLCVSGSCRTFGCDGRMDSQQVWDRCQVCGGDNSTCSPRKGSFTAGRAREYVTFLTVTPNLTSVYIANHRPLFTHLAVRIGGRYVVAGKMSISPNTTYPSLLEDGRVEYRVALTEDRLPRLEEIRIWGPLQEDADIQVYRRYGEEYGNLTRPDITFTYFQPKPRQAWVWAAVRGPCSVSCGAGLRWVNYSCLDQARKELVETVQCQGSQQPPAWPEACVLEPCPPYWAVGDFGPCSASCGGGLRERPVRCVEAQGSLLKTLPPARCRAGAQQPAVALETCNPQPCPARWEVSEPSSCTSAGGAGLALENETCVPGADGLEAPVTEGPGSVDEKLPAPEPCVGMSCPPGWGHLDATSAGEKAPSPWGSIRTGAQAAHVWTPAAGSCSVSCGRGLMELRFLCMDSALRVPVQEELCGLASKPGSRREVCQAVPCPARWQYKLAACSVSCGRGVVRRILYCARAHGEDDGEEILLDTQCQGLPRPEPQEACSLEPCPPRWKVMSLGPCSASCGLGTARRSVACVQLDQGQDVEVDEAACAALVRPEASVPCLIADCTYRWHVGTWMECSVSCGDGIQRRRDTCLGPQAQAPVPADFCQHLPKPVTVRGCWAGPCVGQGTPSLVPHEEAAAPGRTTATPAGASLEWSQARGLLFSPAPQPRRLLPGPQENSVQSSACGRQHLEPTGTIDMRGPGQADCAVAIGRPLGEVVTLRVLESSLNCSAGDMLLLWGRLTWRKMCRKLLDMTFSSKTNTLVVRQRCGRPGGGVLLRYGSQLAPETFYRECDMQLFGPWGEIVSPSLSPATSNAGGCRLFINVAPHARIAIHALATNMGAGTEGANASYILIRDTHSLRTTAFHGQQVLYWESESSQAEMEFSEGFLKAQASLRGQYWTLQSWVPEMQDPQSWKGKEGT
Turning to B2, the “enzymatic cleavage of vWF subdomain A2 detected by Western blot” value is listed as “the cell-expressed ADAMTS13 (lane 4) appears more active than the recombinant ADAMTS13 (lane 2), despite the fact that there is 6× less cell-expressed ADAMTS13 (13ng) than recombinant ADAMTS13 (75 ng) in the assay”.
